Consider four molecules from article PMC4676782.

The target in data set [1] is hCES1 S221A (catalytically inactive mutant) (human) (UniProt P23141). Description: AUC; sedimentation velocity, 20°C, 2, 1.0 and 0.5 mg/mL protein in 20 mM TrisHCl, pH 7.5, 200 mM NaCl, 40,000 rpm; c(S) analysis with SEDFIT.
Data set [2] shares this target. Description: SEC; HiLoad 16/60 Superdex 200, 200 mM NaCl, 20 mM Tris-HCl, pH 7.5; molecular weight estimated from globular protein standards.
Data set [3] deals with hCES1 N79Q (aglycosylated hCES1) (human) (UniProt P23141). Description: AUC; sedimentation velocity, 20°C, 2, 1.0 and 0.5 mg/mL protein in 20 mM TrisHCl, pH 7.5, 200 mM NaCl, 40,000 rpm; c(S) analysis with SEDFIT.
For data set [4] the target is unchanged. Description: SEC; HiLoad 16/60 Superdex 200, 200 mM NaCl, 20 mM Tris-HCl, pH 7.5; molecular weight estimated from globular protein standards.
Data set [5] addresses Human Carboxylesterase 1 (hCES1), wild type, glycosylated (human) (UniProt P23141). Description: AUC; sedimentation velocity, 20°C, 2, 1.0 and 0.5 mg/mL protein in 20 mM TrisHCl, pH 7.5, 200 mM NaCl, 40,000 rpm; c(S) analysis with SEDFIT.
For data set [6] the target is unchanged. Description: SEC; HiLoad 16/60 Superdex 200, 200 mM NaCl, 20 mM Tris-HCl, pH 7.5; molecular weight estimated from globular protein standards.
A short description of data set [7]: 4-NPA kinetics, allosteric sigmoidal fit. The note with it: glycan lost; control: glycosylated hCES1.
A short description of data set [8]: 4-NPA hydrolysis, A405, specific activity. To be noted: glycan lost; control: glycosylated hCES1.
Data set [9] in a line: crystal structure superposition, Cα rmsd. The note with it: glycan lost; control: glycosylated hCES1 structure (5a7f).
Data set [10] can be described thus: size exclusion chromatography. To be noted: glycan lost; control: glycosylated hCES1.
The conditions of data set [11]: N-glycosylation at N79.
A short description of data set [12]: sedimentation velocity analytical ultracentrifugation. To be noted: glycan lost; control: glycosylated hCES1.

Like-named read-outs stand apart in the source and are kept apart here.

As a reminder, the stoichiometry N is the number of molecules, sites or subunits per partner or assembly. Take “hCES1 S221A (catalytically inactive mutant) (from UniProt P23141 18-567) (enzyme)”: the stoichiometry N in [1] and in [2] was 3 each time.

“hCES1 N79Q (aglycosylated hCES1) (from UniProt P23141 18-567) (enzyme)”: the stoichiometry N in data set [3] and in data set [4] was 3 throughout.

As for “Human Carboxylesterase 1 (hCES1), wild type, glycosylated (from UniProt P23141 18-567) (enzyme)”, the stoichiometry N in [5] and in [6] was 3 throughout.

B1: Human Carboxylesterase 1 (hCES1): N79Q (protein)
parent chain: MWLRAFILATLSASAAWGHPSSPPVVDTVHGKVLGKFVSLEGFAQPVAIFLGIPFAKPPLGPLRFTPPQPAEPWSFVKNATSYPPMCTQDPKAGQLLSELFTNRKENIPLKLSEDCLYLNIYTPADLTKKNRLPVMVWIHGGGLMVGAASTYDGLALAAHENVVVVTIQYRLGIWGFFSTGDEHSRGNWGHLDQVAALRWVQDNIASFGGNPGSVTIFGESAGGESVSVLVLSPLAKNLFHRAISESGVALTSVLVKKGDVKPLAEQIAITAGCKTTTSAVMVHCLRQKTEEELLETTLKMKFLSLDLQGDPRESQPLLGTVIDGMLLLKTPEELQAERNFHTVPYMVGINKQEFGWLIPMQLMSYPLSEGQLDQKTAMSLLWKSYPLVCIAKELIPEATEKYLGGTDDTVKKKDLFLDLIADVMFGVPSVIVARNHRDAGAPTYMYEFQYRPSFSSDMKPKTVIGDHGDELFSVFGAPFLKEGASEEEIRLSKMVMKFWANFARNGNPNGEGLPHWPEYNQKEGYLQIGANTQAAQKLKDKEVAFWTNLFAKKAVEKPPQTEHIEL
As for B1, in data set [7], the “enzymatic_activity, other: Hill coefficient” value is on record as “no change, 1.57 +/- 0.4 vs 1.46 +/- 0.26”; the “enzymatic_activity, other: Khalf” value was “no change, 1090 +/- 343.3 vs 1123 +/- 280.2”; the “enzymatic_activity, other: Vmax” value was “no change, 10.92 +/- 2.01 vs 9.25 +/- 1.30”. In addition, in [8], the “enzymatic_activity, other: specific activity” value is given as “no change, 98 vs 73, The purified aglycosylated enzyme was found to be more active than glycosylated hCES1”. The same molecule had a structure or conformation, other: rmsd to control in data set [9] of 0.47 Å. In data set [10], the oligomerisation entry is on record as “no change”. In data set [11], the enzymatic_activity result is given as “no change, specific activity 73 (hCES1) vs 98 (N79Q) µmol min-1 μg-1; Vmax 9.25 +/- 1.30 vs 10.92 +/- 2.01 μMmin-1; h 1.46 vs 1.57”; the expression_or_secretion result is “no change, 39 mg/L (N79Q, transient HEK293T) vs 64 mg/L (hCES1, stable HEK293 Gnt1-/-)”; the oligomerisation entry is given as “no change, trimer, apparent molecular weight 152 kDa”; the structure_or_conformation entry is “no change, rmsd 0.47 Å (vs hCES1) and 0.3 Å (vs S221A) for all Cα atoms”. Further, the oligomerisation entry in data set [12] is “no change”.
